This note sets out measurements from paper PMC3821912.

This assay deals with areca nut (AN) peroxidase (Areca catechu L.). Nature of the assay: native gel or EMSA; native gel without heating or reducing agent; zymogram (20 mM guaiacol, 5 mM H2O2) and Coomassie staining; enzyme desalted with HEPES buffer (20 mM, pH 7.9); dimer to monomers. In general terms: A gel shift assay detects complexes by their altered migration in electrophoresis.

What is called stoichiometry N is the number of molecules, sites or subunits per partner or assembly. areca nut (AN) peroxidase (enzyme): the stoichiometry N worked out at 2.
